From doi:10.1101/2022.01.28.478199 (bioRxiv, 2022)
Where “and” joins values, the source holds several entries; their conditions need not be identical. Equal values may be shown once.

Experiments:
native gel or EMSA = target: the molecule itself; test: native gel or EMSA
SEC = target: the molecule itself; test: SEC

Protein | stoichiometry N (native gel or EMSA) | stoichiometry N (SEC)
Hsp78-6xHis (wild-type Hsp78 with a C-terminal 6x polyhistidine-tag) (natural protein) not shown | 3 and 6 | –
WT Hsp78 expressed and affinity purified from E. coli (natural protein) not shown | – | 2 and 3
